# Results as given in patent US20100311648A1.
# What was measured:
# [1] = biological target: melanocortin-1 receptor (mouse (B-16 melanoma cells); in some instances human (hMC1-R)) (UniProt Q01727); assay: [I125]-NDP-α-MSH competition, MC1-R membranes
# [2] = biological target: human melanocortin-4 receptor (human) (UniProt P32245); assay: cell-based or functional assay
# [3] = biological target: human melanocortin-4 receptor (human) (UniProt P32245); assay: [I125]-NDP-α-MSH competition, hMC4-R HEK-293 membranes
# melanocortin-1 receptor (mouse (B-16 melanoma cells); in some instances human (hMC1-R)), sequence (Q01727 whole entry): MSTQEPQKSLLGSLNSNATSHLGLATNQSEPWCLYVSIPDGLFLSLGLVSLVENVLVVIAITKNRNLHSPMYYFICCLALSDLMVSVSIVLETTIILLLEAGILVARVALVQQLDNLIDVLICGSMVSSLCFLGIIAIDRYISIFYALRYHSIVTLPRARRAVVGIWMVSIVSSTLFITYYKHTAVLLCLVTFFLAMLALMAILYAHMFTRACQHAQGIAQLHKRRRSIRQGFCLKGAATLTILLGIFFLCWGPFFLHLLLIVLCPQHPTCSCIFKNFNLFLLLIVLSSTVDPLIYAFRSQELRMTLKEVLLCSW
# human melanocortin-4 receptor (human), sequence (P32245 whole entry): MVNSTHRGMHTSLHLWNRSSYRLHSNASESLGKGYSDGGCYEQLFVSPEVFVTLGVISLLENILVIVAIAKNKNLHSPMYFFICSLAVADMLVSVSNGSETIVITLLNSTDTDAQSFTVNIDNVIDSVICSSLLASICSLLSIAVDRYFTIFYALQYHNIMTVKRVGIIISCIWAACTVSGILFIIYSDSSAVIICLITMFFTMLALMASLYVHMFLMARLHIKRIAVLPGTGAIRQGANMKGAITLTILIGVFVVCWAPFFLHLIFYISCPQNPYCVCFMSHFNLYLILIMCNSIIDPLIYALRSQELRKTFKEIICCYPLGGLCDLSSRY
substance,measurement,setting,value
Ac-Arg-cyclo(Glu-Dab-D-Phe(4-F)-Arg-Trp-Orn)-NH2 (peptide),Ki,[1],500 pM
same,"EC50, cAMP, 0.1 ng/mL Doxycycline",[2],65 pM
same,"EC50, cAMP, 10 ng/mL Doxycycline",[2],60 pM
same,"Intrinsic Activity, cAMP, 0.1 ng/mL Doxycycline",[2],83%
same,"Intrinsic Activity, cAMP, 10 ng/mL Doxycycline",[2],90%
same,Ki,[3],250 pM
Ac-Arg-cyclo(Glu-Dab-D-Phe(4-OMe)-Arg-Trp-Orn)-NH2 (peptide),Ki,[1],150 pM
same,"EC50, cAMP, 0.1 ng/mL Doxycycline",[2],150 pM
same,"EC50, cAMP, 10 ng/mL Doxycycline",[2],160 pM
same,"Intrinsic Activity, cAMP, 0.1 ng/mL Doxycycline",[2],28%
same,"Intrinsic Activity, cAMP, 10 ng/mL Doxycycline",[2],97%
same,Ki,[3],250 pM
Ac-Arg-cyclo(Glu-Hyp-D-Phe(2-Cl)-Arg-Trp-Orn)-NH2 (peptide),Ki,[1],143000 pM
same,"EC50, cAMP, 0.1 ng/mL Doxycycline",[2],1000 pM
same,"EC50, cAMP, 10 ng/mL Doxycycline",[2],153 pM
same,"Intrinsic Activity, cAMP, 0.1 ng/mL Doxycycline",[2],41%
same,"Intrinsic Activity, cAMP, 10 ng/mL Doxycycline",[2],98%
same,Ki,[3],1000 pM
Ac-Arg-cyclo(Glu-Hyp-D-Phe(3-Cl)-Arg-Trp-Orn)-NH2 (peptide),Ki,[1],430000 pM
same,"EC50, cAMP, 10 ng/mL Doxycycline",[2],550 pM
same,"Intrinsic Activity, cAMP, 0.1 ng/mL Doxycycline",[2],6%
same,"Intrinsic Activity, cAMP, 10 ng/mL Doxycycline",[2],90%
same,Ki,[3],2000 pM
Ac-Arg-cyclo(Glu-Hyp-D-Phe(4-CN)-Arg-Trp-Orn)-NH2 (peptide),Ki,[1],880000 pM
same,"EC50, cAMP, 10 ng/mL Doxycycline",[2],500 pM
same,"Intrinsic Activity, cAMP, 0.1 ng/mL Doxycycline",[2],8%
same,"Intrinsic Activity, cAMP, 10 ng/mL Doxycycline",[2],93%
same,Ki,[3],2000 pM
Ac-Arg-cyclo(Glu-Hyp-D-Phe(4-F)-Arg-Trp-Orn)-NH2 (peptide),Ki,[1],89000 pM
same,"EC50, cAMP, 0.1 ng/mL Doxycycline",[2],450 pM
same,"EC50, cAMP, 10 ng/mL Doxycycline",[2],140 pM
same,"Intrinsic Activity, cAMP, 0.1 ng/mL Doxycycline",[2],62%
same,"Intrinsic Activity, cAMP, 10 ng/mL Doxycycline",[2],95%
same,Ki,[3],1000 pM
Ac-Arg-cyclo(Glu-Met(O2)-D-Phe(4-F)-Arg-Trp-Orn)-NH2 (peptide),Ki,[1],33000 pM
same,"EC50, cAMP, 0.1 ng/mL Doxycycline",[2],850 pM
same,"EC50, cAMP, 10 ng/mL Doxycycline",[2],75 pM
same,"Intrinsic Activity, cAMP, 0.1 ng/mL Doxycycline",[2],55%
same,"Intrinsic Activity, cAMP, 10 ng/mL Doxycycline",[2],91%
same,Ki,[3],2000 pM
Ac-Arg-cyclo(Glu-Orn-D-Phe(2-Cl)-Arg-Trp-Orn)-OH (peptide),Ki,[1],8000 pM
same,"EC50, cAMP, 0.1 ng/mL Doxycycline",[2],2000 pM
same,"EC50, cAMP, 10 ng/mL Doxycycline",[2],235 pM
same,"Intrinsic Activity, cAMP, 0.1 ng/mL Doxycycline",[2],74%
same,"Intrinsic Activity, cAMP, 10 ng/mL Doxycycline",[2],93%
same,Ki,[3],8000 pM
Ac-Arg-cyclo(Glu-Orn-D-Phe(3-Cl)-Arg-Trp-Orn)-OH (peptide),Ki,[1],23000 pM
same,"EC50, cAMP, 0.1 ng/mL Doxycycline",[2],10000 pM
same,"EC50, cAMP, 10 ng/mL Doxycycline",[2],800 pM
same,"Intrinsic Activity, cAMP, 0.1 ng/mL Doxycycline",[2],28%
same,"Intrinsic Activity, cAMP, 10 ng/mL Doxycycline",[2],98%
same,Ki,[3],20000 pM
Ac-Arg-cyclo(Glu-Thr(Bzl)-D-Phe(2-Cl)-Arg-Trp-Orn)-NH2 (peptide),Ki,[1],12000 pM
same,"EC50, cAMP, 0.1 ng/mL Doxycycline",[2],370 pM
same,"EC50, cAMP, 10 ng/mL Doxycycline",[2],157 pM
same,"Intrinsic Activity, cAMP, 0.1 ng/mL Doxycycline",[2],30%
same,"Intrinsic Activity, cAMP, 10 ng/mL Doxycycline",[2],93%
same,Ki,[3],350 pM
Ac-D-Arg-cyclo(Orn-His-D-Phe(2-Cl)-Arg-Trp-Glu)-NH2 (peptide),Ki,[1],2000 pM
same,"EC50, cAMP, 0.1 ng/mL Doxycycline",[2],210 pM
same,"EC50, cAMP, 10 ng/mL Doxycycline",[2],85 pM
same,"Intrinsic Activity, cAMP, 0.1 ng/mL Doxycycline",[2],94%
same,"Intrinsic Activity, cAMP, 10 ng/mL Doxycycline",[2],94%
same,Ki,[3],1000 pM
"Ac-D-Arg-cyclo(Orn-His-D-Phe(3,4-diF)-Arg-Trp-Glu)-NH2 (peptide)",Ki,[1],700 pM
same,"EC50, cAMP, 0.1 ng/mL Doxycycline",[2],75 pM
same,"EC50, cAMP, 10 ng/mL Doxycycline",[2],75 pM
same,"Intrinsic Activity, cAMP, 0.1 ng/mL Doxycycline",[2],56%
same,"Intrinsic Activity, cAMP, 10 ng/mL Doxycycline",[2],92%
same,Ki,[3],250 pM
Ac-D-Arg-cyclo(Orn-His-D-Phe(3-Cl)-Arg-Trp-Glu)-NH2 (peptide),Ki,[1],3000 pM
same,"EC50, cAMP, 0.1 ng/mL Doxycycline",[2],640 pM
same,"EC50, cAMP, 10 ng/mL Doxycycline",[2],400 pM
same,"Intrinsic Activity, cAMP, 0.1 ng/mL Doxycycline",[2],22%
same,"Intrinsic Activity, cAMP, 10 ng/mL Doxycycline",[2],95%
same,Ki,[3],600 pM
Ac-D-Arg-cyclo(Orn-His-D-Phe(4-CN)-Arg-Trp-Glu)-NH2 (peptide),Ki,[1],6000 pM
same,"EC50, cAMP, 0.1 ng/mL Doxycycline",[2],325 pM
same,"EC50, cAMP, 10 ng/mL Doxycycline",[2],200 pM
same,"Intrinsic Activity, cAMP, 0.1 ng/mL Doxycycline",[2],31%
same,"Intrinsic Activity, cAMP, 10 ng/mL Doxycycline",[2],99%
same,Ki,[3],600 pM
Ac-D-Arg-cyclo(Orn-His-D-Phe(4-F)-Arg-Trp-Glu)-NH2 (peptide),Ki,[1],1000 pM
same,"EC50, cAMP, 0.1 ng/mL Doxycycline",[2],250 pM
same,"EC50, cAMP, 10 ng/mL Doxycycline",[2],95 pM
same,"Intrinsic Activity, cAMP, 0.1 ng/mL Doxycycline",[2],89%
same,"Intrinsic Activity, cAMP, 10 ng/mL Doxycycline",[2],100%
same,Ki,[3],650 pM
